Data: patent US20190338269

Columns and labels:
[1] = molecular target: T1, FVIIv1-psFX-IIa-F2 (FX-IIa expressed with the factor X signal peptide and the FVII isoform v1 propeptide, from HEK, aptamer-purified)
T1 chain 1: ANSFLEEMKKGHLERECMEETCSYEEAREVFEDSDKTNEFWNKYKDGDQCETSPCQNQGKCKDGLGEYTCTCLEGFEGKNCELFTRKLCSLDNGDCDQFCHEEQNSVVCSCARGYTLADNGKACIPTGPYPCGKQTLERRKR
T1 chain 2: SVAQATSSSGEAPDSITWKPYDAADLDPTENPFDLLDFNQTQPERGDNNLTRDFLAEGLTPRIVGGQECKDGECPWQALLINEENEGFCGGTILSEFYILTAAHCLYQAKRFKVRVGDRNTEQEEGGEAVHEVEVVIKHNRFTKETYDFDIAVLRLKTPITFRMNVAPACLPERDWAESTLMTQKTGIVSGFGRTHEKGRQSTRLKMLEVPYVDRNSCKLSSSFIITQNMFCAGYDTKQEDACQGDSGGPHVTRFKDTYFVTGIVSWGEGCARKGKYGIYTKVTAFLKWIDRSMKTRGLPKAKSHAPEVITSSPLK

[2] = molecular target: T2, Opti-HEK-VKOR-IIa (FX-IIa with the factor X signal peptide and factor X propeptide variant, co-expressed with human VKOR in HEK, aptamer-purified)
T2 chain 1: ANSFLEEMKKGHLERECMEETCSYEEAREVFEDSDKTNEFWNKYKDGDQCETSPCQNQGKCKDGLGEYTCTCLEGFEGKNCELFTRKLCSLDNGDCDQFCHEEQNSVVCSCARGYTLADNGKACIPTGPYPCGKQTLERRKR
T2 chain 2: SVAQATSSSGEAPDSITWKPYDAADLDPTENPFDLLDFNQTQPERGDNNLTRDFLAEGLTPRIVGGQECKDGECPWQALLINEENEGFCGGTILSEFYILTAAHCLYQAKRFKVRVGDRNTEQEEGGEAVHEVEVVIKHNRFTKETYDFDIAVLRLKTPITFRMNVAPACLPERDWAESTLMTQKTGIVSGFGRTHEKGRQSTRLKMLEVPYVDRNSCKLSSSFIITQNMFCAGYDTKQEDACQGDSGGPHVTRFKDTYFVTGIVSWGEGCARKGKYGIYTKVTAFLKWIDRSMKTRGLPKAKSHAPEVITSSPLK

B1: factor VIIa/tissue factor (TF) complex (protein)
chain 1: ANAFLEELRPGSLERECKEEQCSFEEAREIFKDAERTKLFWISYSDGDQCASSPCQNGGSCKDQLQSYICFCLPAFEGRNCETHKDDQLICVNENGGCEQYCSDHTGTKRSCRCHEGYSLLADGVSCTPTVEYPCGKIPILEKRNASKPQGRIVGGKVCPKGECPWQVLLLVNGAQLCGGTLINTIWVVSAAHCFDKIKNWRNLIAVLGEHDLSEHDGDEQSRRVAQVIIPSTYVPGTTNHDIALLRLHQPVVLTDHVVPLCLPERTFSERTLAFVRFSLVSGWGQLLDRGATALELMVLNVPRLMTQDCLQQSRKVGDSPNITEYMFCAGYSDGSKDSCKGDSGGPHATHYRGTWYLTGIVSWGQGCATVGHFGVYTRVSQYIEWLQKLMRSEPRPGVLLRAPFP
chain 2: SGTTNTVAAYNLTWKSTNFKTILEWEPKPVNQVYTVQISTKSGDWKSKCFYTTDTECDLTDEIVKDVKQTYLARVFSYPAGNVESTGSAGEPLYENSPEFTPYLETNLGQPTIQSFEQVGTKVNVTVEDERTLVRRNNTFLSLRDVFGKDLIYTLYYWKSSSSGKKTAKTNTNEFLIDVDKGENYCFSVQAVIPSRTVNRKSTDSPVECMGQEKGEFREIFYIIGAVVFVVIILVIILAISLHKCRKAGVGQSWKENSPLNVS
[1]
  FXa generated after incubation with FVIIa/TF (rate of hydrolysis of PNAPEP substrate), percent of the plasma FXa control: 36% activated relative to the FXa for FVIIv1-psFX-IIa-F2
  activity after FVIIa/TF activation, percent of that of the molecule containing the wild-type propeptide (Opti-HEK-VKOR-IIa): an activity of 142% of that of the molecule containing the wild-type propeptide
[2]
  FXa generated after incubation with FVIIa/TF (rate of hydrolysis of PNAPEP substrate), percent of the plasma FXa control: 27% activated relative to the FXa for Opti-HEK-VKOR-IIa
